The values that follow come from patent US20040063184A1, “Fermentation processes and compositions” (priority 2002, published 2004).

Common to all, as to format: cell-based
Assay [1] relates to yeast. The assay can be described thus: Example 4: LSF ethanol fermentation with lipases, purified lipases, ferric sulfate. As to conditions: Candida antarctica lipase 400 LU/g DS, purified lipases 100 LU/g DS. As for the experimental part:
Example 4 was conducted on dry milled corn according to a simultaneous liquefaction5 saccharification-fermentation (LSF) protocol. The experiment was carried out on ground yellow corn using a glucoamylase and alpha amylase for fermenting ethanol with and without lipase, as described in examples 2 and 3. Fermentations were carried out at pH=5.0, 32° C. for several hours. In addition to Candida antarctica lipase and inactivated Candida antarctica lipase, feric sulfate and purified lipases from Candida cylindracea lipase and Candida antarctica lipase A, were also compared. Four times less of the purified lipase was used.

In assay [2] the test system is yeast. The assay can be described thus: Example 14: LSF ethanol fermentation with and without laccase. The note with it: additive with glucoamylase: 0.1 M NaCl & 0.7 GAU/g DS, NZ 525 0.5% DS & 0.9 GAU/g DS, laccase 0.2% DS & 1.0 GAU/g DS. As for the experimental part:
The addition of a laccase was tested under anaerobic fermentation conditions analogous to ethanol fermenting experiments. The experiment was conducted on dry milled yellow corn according to a simultaneous liquefaction-saccharification-fermentation (LSF) protocol. The experiment was carried out using a glucoamylase (Spirizyme plus, available from Novozymes A/S) for fermenting ethanol, with and without laccase. Fermentations were carried out at pH=5.0, 32° C. for several hour. The process was monitored with time and analyzed for CO2 weight loss, percent ethanol produced and theoretical conversion of the starch.

In assay [3] the test system is Ethanol Red yeast. The assay can be described thus: Example 8: as Example 6 with protease in the fermentation medium. Here is the method:
This experiment was carried out using the same experimental conditions and enzyme concentrations described in Example 6, with the exception that protease (Novozyme 50006, 0.007% DS) was also added to the fermentation medium with an increased sample volume.
To eliminate the possibility that a substance in the CALB formulation was contributing to the effect obtained, inactivated CALB was also used. A control was prepared by inactivating CALB by boiling for 3 hours. Upon completion of boiling, the volume was adjusted to the initial value with DI water, and sample was spun down at 3,000 rpm for 20 min. The liquid layer was forced through the 0.45-μm filter. The enzyme was thereby completely inactivated.

The subject of assay [4] is yeast. Nature of the assay: Example 2: LSF ethanol fermentation of ground yellow corn with esterases. As to conditions: esterase 200 U/g DS. As for the experimental part:
Example 2 was conducted on dry milled ground yellow corn according to a simultaneous liquefaction-saccharification-fermentation (LSF) protocol. The experiment was carried out using a glucoamylase (Spirizyme Plus, available from Novozymes A/S) in an amount of 0.8 GAU/g DS and a fungal alpha amylase (SP288, available from Novozymes A/S) in an amount of 2.6 AFAU/g DS for fermenting ethanol along with the addition of:
(A) lipase (LIPOLASE, available from Novozymes A/S),
(B) Candida antarctica lipase,
(C) cutinase (JC 492, available from Novozymes A/S)
(D) phospholipase (LECITASE available from Novozymes A/S),
(E) inactivated Candida antarctica lipase (inactivated by boiling for three hours), and
(F) a control (glucoamylase and amylase without esterase addition).
The esterases were added in an amount corresponding to 200 U/g DS. Fermentations were carried out at pH=5.0, 32° C. for several hours. The process was monitored with time and ana20 lyzed for CO2 weight loss, percent ethanol produced and theoretical conversion of the starch.

The subject of assay [5] is Ethanol Red yeast. The assay can be described thus: Example 10: Lipolase 100 T versus purified Lipolase. As for the experimental part:
In this example, Lipolase 100 T and purified Lipolase (both available from Novozymes A/S) were compared. The Experimental conditions were as follows: Ethanol Red yeast, 36% DS, 1.5 GAU/g DS Spirizyme Fuel, 0.8 AFAU/g DS SP 288. Yeast was propagated with maltodextrin and protease. Fermentation was carried out in 25-ml fermentors at 32.2° C. without mixing for 72 h. A control was run as described, without the addition of lipase.

For the molecule `O=S(=O)([O-])[O-].O=S(=O)([O-])[O-].O=S(=O)([O-])[O-].[Fe+3].[Fe+3]` [Fe2(SO4)3], the “Calculated ethanol, % v/v” value is 11.58 ± 0.13 % v/v with yeast [1] (24 h), 16.87 ± 0.43 % v/v in the assay on yeast [1] (48 h) and 18.82 ± 0.91 % v/v in the assay with yeast [1] (72 h). The “Efficiency, %” value with yeast [1] (24 h) was 52.79 ± 0.67%; in the assay on yeast [1] (48 h), 81.84 ± 2.57%; in the assay on yeast [1] (72 h), 91.00 ± 2.45%.

As for `[Cl-].[Na+]` [NaCl], the “HPLC ethanol, % v/v” value is 1.88 % v/v in the assay with yeast [2] (7 h); 7.91 % v/v in the assay on yeast [2] (23 h); 8.78 % v/v with yeast [2] (29 h); 10.30 % v/v in the assay on yeast [2] (47 h); 10.94 % v/v in the assay with yeast [2] (55 h); 14.61 % v/v in the assay with yeast [2] (119 h).

B1: Candida antarctica lipase inactive: Candida antarctica lipase inactivated by boiling for three hours (protein, UniProt P41365 26-342, looked up)
Lipase B: LPSGSDPAFSQPKSVLDAGLTCQGASPSSVSKPILLVPGTGTTGPQSFDSNWIPLSTQLGYTPCWISPPPFMLNDTQVNTEYMVNAITALYAGSGNNKLPVLTWSQGGLVAQWGLTFFPSIRSKVDRLMAFAPDYKGTVLAGPLDALAVSAPSVWQQTTGSALTTALRNAGGLTQIVPTTNLYSATDEIVQPQVSNSPLDSSYLFNGKNVQAQAVCGPLFVIDHAGSLTSQFSYVVGRSALRSTTGQARSADYGITDCNPLPANDLTPEQKVAAAALLAPAAAAIVAGPKQNCEPDLMPYARPFAVGKRTCSGIVTP
modifications: heat-inactivated by boiling
With B1, the “effect on ethanol yield and efficiency” value in the assay on Ethanol Red yeast [3] is “no significant difference between ethanol yield of control samples and ethanol yield of samples treated with inactivated CALB”. The “Calculated ethanol, % v/v” value is 11.43 ± 0.08 % v/v with yeast [4] (24 h); 16.88 ± 0.15 % v/v with yeast [4] (48 h); 10.59 ± 0.16 % v/v with yeast [1] (24 h); 16.91 ± 0.30 % v/v with yeast [1] (48 h); 18.65 ± 0.40 % v/v in the assay on yeast [1] (72 h). Moreover, the “Efficiency, %” value in the assay on yeast [4] (24 h) came to 52.88 ± 0.40%; in the assay on yeast [4] (48 h), 83.18 ± 0.89%; with yeast [4] (72 h), 90.89 ± 0.25%; in the assay with yeast [1] (24 h), 49.33 ± 0.85%; with yeast [1] (48 h) it was 84.73 ± 1.77%; in the assay on yeast [1] (72 h), 95.49 ± 2.53%. In addition, the “HPLC ethanol, % v/v” value in the assay with yeast [4] (72 h) is 19.49 ± 0.04 % v/v.

B2: Lipolase (purified): purified Lipolase, available from Novozymes A/S (protein, UniProt O59952 23-291, looked up)
Lipase: EVSQDLFNQFNLFAQYSAAAYCGKNNDAPAGTNITCTGNACPEVEKADATFLYSFEDSGVGDVTGFLALDNTNKLIVLSFRGSRSIENWIGNLNFDLKEINDICSGCRGHDGFTSSWRSVADTLRQKVEDAVREHPDYRVVFTGHSLGGALATVAGADLRGNGYDIDVFSYGAPRVGNRAFAEFLTVQTGGTLYRITHTNDIVPRLPPREFGYSHSSPEYWIKSGTLVPVTRNDIVKIEGIDATGGNNQPNIPDIPAHLWYFGLIGTCL
Consider B2, for which, in the assay on Ethanol Red yeast [5] (1 LU/g DS), the “Change, % v/v vs. control (efficiency)” value is “+1.00 % v/v”; the “Change, % v/v vs. control (ethanol)” value is “+0.31 % v/v”; the “Efficiency, %” value is 84.00%; the “Ethanol, % v/v in beer” value was 18.41 % v/v. In addition, in the assay on Ethanol Red yeast [5] (10 LU/g DS), the “Change, % v/v vs. control (efficiency)” value is listed as “+0.49 % v/v”; the “Change, % v/v vs. control (ethanol)” value is on record as “+0.52 % v/v”; the “Efficiency, %” value was 83.49%; the “Ethanol, % v/v in beer” value came to 18.62 % v/v. Also, in the assay on Ethanol Red yeast [5] (100 LU/g DS), the “Change, % v/v vs. control (efficiency)” value is listed as “+0.57 % v/v”; the “Change, % v/v vs. control (ethanol)” value is given as “+0.14 % v/v”; the “Efficiency, %” value was found to be 83.57%; the “Ethanol, % v/v in beer” value is reported as 18.24 % v/v.
